For test [1], the target named is T1, human ROR1 expressed on the cell surface (human, UniProt Q01973 30-937).
T1 construct: whole, on cells; also called cell surface-expressed ROR1 antigen; ROR1 on JeKo-1, Mino, CHO-human ROR1, MC38-human ROR1 and other cancer cell lines
In words: flow cytometry on Mino cells (MCL), C2E3 IgG, FITC anti-human Fc detection. On the procedure: (§1) FACS analysis (FACSCalibur, BD Biosciences) was used to analyze the binding of the anti-ROR1 antibody of the present invention to ROR1 in the above cell lines.
(§2) Specifically, the respective cell lines were dissociated and washed in PBS, then the numbers of cells were counted and adjusted to 2×10⁵ cells/200 PBS. Then, they were treated with 10 /mL of the antibody of clone name C2E3 of the ROR1 monoclonal antibodies prepared in Embodiment 3, and reacted for 1 hour at 4° C. After the reaction, the cells were washed in PBS, then FITC-marked constant region (Fc) specific antibody (Goat anti-human IgG FITC conjugate, Fc specific, Sigma, F9512, concentration 20 mg/ml) was suspended in 2 /1×10⁵ cells/200 PBS and reacted for 1 hour at 4° C. After reacting, the cells were washed with PBS and analyzed with the FACSCalibur equipment. The negative control was only treated with FITC-marked constant region (Fc) specific antibody. To compare the degree of ROR1 expression among the respective cancer cell lines, the quotient of dividing the shifted readings for the experimental group treated with the ROR1 monoclonal antibody (C2E3) of the present invention by the shifted readings for the control group (MFI Ratio: MFI of anti-ROR1/MFI or 2nd Ab) is indicated.

Test [2] concerns the target T1, human ROR1 expressed on the cell surface. Briefly: flow cytometry on Kasumi-2 cells (ALL), C2E3 IgG, FITC anti-human Fc detection. On the procedure: as §1, §2
(In general: Flow cytometry measures light scatter and fluorescence of single cells or particles in a stream.)

Test [3] shares this target. Briefly: flow cytometry on A549 cells (lung cancer), C2E3 IgG, FITC anti-human Fc detection. On the procedure: as §1, §2
Test [4] has the same target. In words: flow cytometry on H1437 cells (lung cancer), C2E3 IgG, FITC anti-human Fc detection. On the procedure:
as §1, §2

Test [5] has the same target. In words: flow cytometry on AGS cells (gastric cancer), C2E3 IgG, FITC anti-human Fc detection. On the procedure: as §1, §2
Test [6] has the same target. In words: flow cytometry on Calu-6 cells (lung cancer), C2E3 IgG, FITC anti-human Fc detection. On the procedure: as §1, §2
For test [7] the target is unchanged. Briefly: flow cytometry on DLD-1 cells (colon cancer), C2E3 IgG, FITC anti-human Fc detection. On the procedure:
as §1, §2

For test [8] the target is unchanged. Briefly: flow cytometry on HCC70 cells (breast cancer), C2E3 IgG, FITC anti-human Fc detection. On the procedure:
as §1, §2

Test [9] has the same target. Briefly: flow cytometry on HCC1187 cells (breast cancer), C2E3 IgG, FITC anti-human Fc detection. On the procedure: as §1, §2
For test [10] the target is unchanged. In words: flow cytometry on HCC1937 cells (breast cancer), C2E3 IgG, FITC anti-human Fc detection. On the procedure:
as §1, §2

For test [11] the target is unchanged. In words: flow cytometry on SNU-16 cells (gastric cancer), C2E3 IgG, FITC anti-human Fc detection. On the procedure:
as §1, §2

Test [12] has the same target. In words: flow cytometry on NCI-N87 cells (gastric cancer), C2E3 IgG, FITC anti-human Fc detection. On the procedure:
as §1, §2

For test [13] the target is unchanged. Briefly: flow cytometry on MDA-MB-468 cells (breast cancer), C2E3 IgG, FITC anti-human Fc detection. On the procedure: as §1, §2
In test [14] the target is T2, human ROR2 over-expressed on CHO cells (CHO-human ROR2) (human, UniProt Q01974 34-943).
T2 construct: whole, on cells; Negative control; also called family protein human ROR2
In words: flow cytometry on CHO-S cells transiently over-expressing human ROR2, FITC anti-human Fc detection, MFI ratio to 2nd Ab alone. An excerpt:
For this experiment, using cell lines (FIG. 5 and FIG. 7, respectively) transiently (CHO-human ROR1, CHO-human ROR2, CHO-mouse ROR1) or stably (MC38-human ROR1) transfected with ROR1 gene to achieve artificial over-expression of ROR1 protein, an ROR1-expressing cell line (JeKo-1, Mino) (FIG. 6), a non ROR1-expressing cell line (MCF7) (FIG. 6) and a FACSCalibur (BD Biosciences) device was used to measure the degree to which anti-ROR1 antibody and ROR1 were bound, as follows. […] JeKo-1, Mino, CHO-human ROR1, CHO-mouse ROR1 and MC38-human ROR1 are all cell lines which express human ROR1 or mouse ROR1.
Specifically, after dissociating each cell line and washing in PBS, the number of cells was counted and adjusted to 2×10⁵ cells/200 PBS. Then the respective ROR1 monoclonal antibodies prepared in Embodiment 3 were diluted 5 times from 10 /mL or 10 /mL, then reacted for 1 hour at 4° C. After the reaction, the cells were washed in PBS, then FITC-marked constant region (Fc) specific antibody (Goat anti-human IgG FITC conjugate, Fc specific, Sigma, F9512, concentration 20 mg/ml) was suspended in 2 /1×10⁵ cells/200 PBS and reacted for 1 hour at 4° C. As for identification of the degree of expression of the transiently over-expressed human ROR1, human ROR2 and mouse ROR1, a commercially available FACS analysis antibody (anti-ROR1: R&D Systems, FAB 2000G, anti-ROR2: R&D, FAB20641P) was used. After reacting the cells were washed in PBS and analyzed using a FACSCalibur device. The negative control (2nd Ab) was only treated with FITC-marked constant region (Fc) specific antibody. The shifted readings for the respective experimental groups treated with ROR1 monoclonal antibody were compared against the shifted reading for the control group (MFI Ratio: MFI of anti-ROR1/MFI of 2nd Ab).

T1 sequence (Q01973 30-937): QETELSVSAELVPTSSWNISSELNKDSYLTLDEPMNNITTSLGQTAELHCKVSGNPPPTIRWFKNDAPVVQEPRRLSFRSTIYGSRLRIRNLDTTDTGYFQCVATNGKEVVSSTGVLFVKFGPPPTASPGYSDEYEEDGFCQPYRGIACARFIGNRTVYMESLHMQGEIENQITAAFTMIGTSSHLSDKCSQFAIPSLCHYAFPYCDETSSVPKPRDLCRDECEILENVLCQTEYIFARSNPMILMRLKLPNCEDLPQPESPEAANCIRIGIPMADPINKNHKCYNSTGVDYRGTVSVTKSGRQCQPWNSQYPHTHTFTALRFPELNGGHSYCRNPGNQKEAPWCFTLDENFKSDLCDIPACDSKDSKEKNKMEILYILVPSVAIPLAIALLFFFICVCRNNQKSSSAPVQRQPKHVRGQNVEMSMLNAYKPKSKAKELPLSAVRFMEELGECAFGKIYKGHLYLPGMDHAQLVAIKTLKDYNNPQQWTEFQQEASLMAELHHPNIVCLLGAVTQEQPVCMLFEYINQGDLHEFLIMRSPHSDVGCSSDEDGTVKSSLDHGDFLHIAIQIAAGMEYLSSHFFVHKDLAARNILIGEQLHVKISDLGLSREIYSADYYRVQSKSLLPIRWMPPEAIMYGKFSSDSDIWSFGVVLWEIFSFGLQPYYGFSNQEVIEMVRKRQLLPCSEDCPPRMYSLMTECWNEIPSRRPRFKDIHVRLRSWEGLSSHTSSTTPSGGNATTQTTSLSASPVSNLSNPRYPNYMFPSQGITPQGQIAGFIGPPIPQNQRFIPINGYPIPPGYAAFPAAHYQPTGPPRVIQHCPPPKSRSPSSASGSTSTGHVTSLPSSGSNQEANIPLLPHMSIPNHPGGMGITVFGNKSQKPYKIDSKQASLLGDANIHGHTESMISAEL
T2 sequence (Q01974 34-943): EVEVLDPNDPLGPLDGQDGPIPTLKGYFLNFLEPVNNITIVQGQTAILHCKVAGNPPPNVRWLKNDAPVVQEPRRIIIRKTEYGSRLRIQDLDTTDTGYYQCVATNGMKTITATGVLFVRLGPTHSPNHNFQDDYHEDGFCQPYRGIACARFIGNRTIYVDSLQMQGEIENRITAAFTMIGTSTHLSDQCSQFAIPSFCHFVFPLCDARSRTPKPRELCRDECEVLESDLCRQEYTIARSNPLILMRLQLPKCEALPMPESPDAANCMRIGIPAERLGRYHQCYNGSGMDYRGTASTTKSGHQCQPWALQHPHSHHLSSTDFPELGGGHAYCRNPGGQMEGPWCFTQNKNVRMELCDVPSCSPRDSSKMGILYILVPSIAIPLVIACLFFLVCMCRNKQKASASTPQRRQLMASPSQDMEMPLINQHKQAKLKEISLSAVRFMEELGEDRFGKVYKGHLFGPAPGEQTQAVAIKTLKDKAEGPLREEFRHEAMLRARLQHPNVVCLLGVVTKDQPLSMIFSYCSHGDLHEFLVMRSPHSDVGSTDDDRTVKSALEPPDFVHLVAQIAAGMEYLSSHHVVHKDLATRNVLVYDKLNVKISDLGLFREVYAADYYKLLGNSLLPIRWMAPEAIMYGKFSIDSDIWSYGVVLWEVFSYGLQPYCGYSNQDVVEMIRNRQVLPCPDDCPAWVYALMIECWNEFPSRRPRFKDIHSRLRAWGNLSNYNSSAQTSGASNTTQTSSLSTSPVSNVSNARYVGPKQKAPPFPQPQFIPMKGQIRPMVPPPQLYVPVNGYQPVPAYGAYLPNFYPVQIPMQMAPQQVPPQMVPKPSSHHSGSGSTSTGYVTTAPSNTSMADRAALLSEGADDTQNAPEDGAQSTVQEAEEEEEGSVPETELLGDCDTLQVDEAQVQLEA

B1: anti-ROR1 IgG antibody C2E3 (antibody, V domains shown)
VH: EVQLLESGGGLVQPGGSLRLSCAASGFTFSNYAMSWVRQAPGKGLEWVSSISHNSGSTYYADSVKGRFTISRDNSKNTLYLQMNSLRAEDTAVYYCAKFISARKSLGRSYSNGMDVWGQGTLVTVSS
VL: QSVLTQPPSASGTPGQRVTISCTGSSSNIGSNDVTWYQQLPGTAPKLLIYADSKRPSGVPDRFSGSKSGTSASLAISGLRSEDEADYYCGTWDYSLSGYVFGGGTKLTVLG
notes: Full IgG form (human IgG1 constant region, lambda light chain), expressed in CHO-S cells
On to B1, for which the “Mean Fold Ratio (MFI of anti-ROR1 / MFI of 2nd Ab)” value in [1] turned out to be 7.2; in test [2] it was 11.5; in [3], 6; in [4], 4.1; in test [5], 12.3; in [6], 3.3. For the same molecule, the “Mean Fold Ratio (MFI of anti-ROR1 / MFI of 2nd Ab)” value in test [7] stood at 17.6; in test [8], 3.8; in test [9] it was 9.3; in test [10], 2.7; in test [11], 2.4; in test [12], 11.8. Also, in [13], the “Mean Fold Ratio (MFI of anti-ROR1 / MFI of 2nd Ab)” value turned out to be 6.4. In test [14], the binding result is listed as “no binding”.

Source of the values: patent publication US20210069342A1 (LEGOCHEM BIOSCIENCES, published 2021).
